According to patent US20210032299A1 (Eli Lilly, published 2021):
Starred links: 1 amine or outer side, 2 acyl side, 3 side chain; linkers in the order of their positions; H or OH if unused. Non-standard residues stand in square brackets, D forms with d. Groups on a side chain read outwards from the residue. No end group written: not given here. *: point of attachment. C20 diacid = O=C(O)CCCCCCCCCCCCCCCCCCC(=O)*; αMePhe(2-F) = C[C@](N)(Cc1ccccc1F)C(=O)O; γGlu = O=C(O)[C@H](CCC(=O)[*:2])N[*:1]; αMeF = C[C@](N)(Cc1ccccc1)C(=O)O; 4Pal = N[C@@H](Cc1ccncc1)C(=O)O; αMeL = CC(C)C[C@](C)(N)C(=O)O; AEEA = NCCOCCOCC(=O)O; Aib = CC(C)(N)C(=O)O

How the values were obtained:
[1] = target: T1, human glucose-dependent insulinotropic polypeptide (GIP) receptor (human, UniProt P48546 22-466); assay: SPA, displacement of [125I]-GIP from hGIPR membranes, 0.1% bacitracin
T1 construct: whole, on cells; Assayed as crude membranes of stably transfected CHO cells; also called hGIPR; human GIP receptor
T1 sequence (looked up): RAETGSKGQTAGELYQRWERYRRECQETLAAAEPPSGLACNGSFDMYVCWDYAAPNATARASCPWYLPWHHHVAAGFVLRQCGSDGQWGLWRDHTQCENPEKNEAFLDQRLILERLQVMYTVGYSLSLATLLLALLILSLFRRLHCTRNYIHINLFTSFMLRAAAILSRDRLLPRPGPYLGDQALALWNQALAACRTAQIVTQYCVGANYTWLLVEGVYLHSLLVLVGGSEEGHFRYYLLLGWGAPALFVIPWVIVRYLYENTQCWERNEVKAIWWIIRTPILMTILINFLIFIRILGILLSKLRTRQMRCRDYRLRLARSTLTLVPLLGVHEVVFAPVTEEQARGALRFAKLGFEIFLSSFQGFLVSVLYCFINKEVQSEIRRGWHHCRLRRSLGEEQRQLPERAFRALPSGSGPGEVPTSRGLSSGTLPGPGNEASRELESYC

human glucagon receptor = target: T2, human glucagon receptor (human, UniProt P47871 26-477); assay: SPA, displacement of [125I]-Gcg from hGcgR membranes, 0.1% bacitracin
T2 construct: whole, on cells; Assayed as crude membranes of stably transfected HEK293 cells; also called hGcgR; GcgR
T2 sequence (P47871 26-477): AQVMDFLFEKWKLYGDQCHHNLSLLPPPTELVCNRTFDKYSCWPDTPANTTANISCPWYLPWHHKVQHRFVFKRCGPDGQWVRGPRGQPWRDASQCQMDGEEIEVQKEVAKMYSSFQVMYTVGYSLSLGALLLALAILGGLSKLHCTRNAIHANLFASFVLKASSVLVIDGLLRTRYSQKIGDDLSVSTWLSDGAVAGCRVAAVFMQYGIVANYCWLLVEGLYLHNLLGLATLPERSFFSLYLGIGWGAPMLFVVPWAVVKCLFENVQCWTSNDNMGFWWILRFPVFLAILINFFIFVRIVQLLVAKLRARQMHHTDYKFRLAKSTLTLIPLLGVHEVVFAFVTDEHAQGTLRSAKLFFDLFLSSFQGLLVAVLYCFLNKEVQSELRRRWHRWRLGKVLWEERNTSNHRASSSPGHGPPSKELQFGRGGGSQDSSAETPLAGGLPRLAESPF
Summary of the method: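 Binding buffer: 25 mM HEPES pH 7.4, 2.5 mM CaCl₂, 1 mM MgCl₂, 0.003% Tween-20, protease inhibitors without EDTA. Counted by scintillation after 12 h incubation/settling at room temperature. Four-parameter nonlinear fit; Kᵢ given as geometric mean ± SEM of independent replicates run on different days.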

human GLP-1 receptor = target: T3, human GLP-1 receptor (human, UniProt P43220 24-463); assay: SPA, displacement of [125I]-GLP-1 from hGLP-1R membranes, 0.1% bacitracin
T3 construct: whole, on cells; Assayed as crude membranes of stably transfected HEK293 cells; also called hGLP1R; hGLP-1R
Summary of the method: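 Binding buffer: 25 mM HEPES pH 7.4, 2.5 mM CaCl₂, 1 mM MgCl₂, 0.1% bacitracin, 0.003% Tween-20, protease inhibitors without EDTA. Four-parameter nonlinear regression; Kᵢ given as geometric mean ± SEM, n = independent replicates run on different days.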

B1: Example 50 (peptide)
peptide: Y[Aib]EGT[αMeF]ISDYSI[αMeL]LDKK([AEEA-AEEA-γGlu-C20 diacid])HQ[Aib]DFVE[4Pal]LLAGGPSSGAPPPS-NH2
modifications: N-terminus assumed
SMILES: CC[C@H](C)[C@H](NC(=O)[C@H](CO)NC(=O)[C@H](Cc1ccc(O)cc1)NC(=O)[C@H](CC(=O)O)NC(=O)[C@H](CO)NC(=O)[C@@H](NC(=O)[C@](C)(Cc1ccccc1)NC(=O)[C@@H](NC(=O)CNC(=O)[C@H](CCC(=O)O)NC(=O)C(C)(C)NC(=O)[C@@H](N)Cc1ccc(O)cc1)[C@@H](C)O)[C@@H](C)CC)C(=O)N[C@@](C)(CC(C)C)C(=O)N[C@@H](CC(C)C)C(=O)N[C@@H](CC(=O)O)C(=O)N[C@@H](CCCCN)C(=O)N[C@@H](CCCCNC(=O)COCCOCCNC(=O)COCCOCCNC(=O)CC[C@H](NC(=O)CCCCCCCCCCCCCCCCCCC(=O)O)C(=O)O)C(=O)N[C@@H](Cc1c[nH]cn1)C(=O)N[C@@H](CCC(N)=O)C(=O)NC(C)(C)C(=O)N[C@@H](CC(=O)O)C(=O)N[C@@H](Cc1ccccc1)C(=O)N[C@H](C(=O)N[C@@H](CCC(=O)O)C(=O)N[C@@H](Cc1ccncc1)C(=O)N[C@@H](CC(C)C)C(=O)N[C@@H](CC(C)C)C(=O)N[C@@H](C)C(=O)NCC(=O)NCC(=O)N1CCC[C@H]1C(=O)N[C@@H](CO)C(=O)N[C@@H](CO)C(=O)NCC(=O)N[C@@H](C)C(=O)N1CCC[C@H]1C(=O)N1CCC[C@H]1C(=O)N1CCC[C@H]1C(=O)N[C@@H](CO)C(N)=O)C(C)C
[1]
  Ki: 0.0501 nM
Human glucagon receptor
  Ki: 23.4 nM
Human GLP-1 receptor
  Ki: 34.9 nM

B2: Example 60 (peptide)
peptide: Y[Aib]EGT[αMeF]ISDYSI[αMeL]LDKK([AEEA-AEEA-γGlu-C20 diacid])HQ[Aib]EFVE[4Pal]LLAQGPSSGAPPPS-NH2
modifications: N-terminus assumed
SMILES: CC[C@H](C)[C@H](NC(=O)[C@H](CO)NC(=O)[C@H](Cc1ccc(O)cc1)NC(=O)[C@H](CC(=O)O)NC(=O)[C@H](CO)NC(=O)[C@@H](NC(=O)[C@](C)(Cc1ccccc1)NC(=O)[C@@H](NC(=O)CNC(=O)[C@H](CCC(=O)O)NC(=O)C(C)(C)NC(=O)[C@@H](N)Cc1ccc(O)cc1)[C@@H](C)O)[C@@H](C)CC)C(=O)N[C@@](C)(CC(C)C)C(=O)N[C@@H](CC(C)C)C(=O)N[C@@H](CC(=O)O)C(=O)N[C@@H](CCCCN)C(=O)N[C@@H](CCCCNC(=O)COCCOCCNC(=O)COCCOCCNC(=O)CC[C@H](NC(=O)CCCCCCCCCCCCCCCCCCC(=O)O)C(=O)O)C(=O)N[C@@H](Cc1c[nH]cn1)C(=O)N[C@@H](CCC(N)=O)C(=O)NC(C)(C)C(=O)N[C@@H](CCC(=O)O)C(=O)N[C@@H](Cc1ccccc1)C(=O)N[C@H](C(=O)N[C@@H](CCC(=O)O)C(=O)N[C@@H](Cc1ccncc1)C(=O)N[C@@H](CC(C)C)C(=O)N[C@@H](CC(C)C)C(=O)N[C@@H](C)C(=O)N[C@@H](CCC(N)=O)C(=O)NCC(=O)N1CCC[C@H]1C(=O)N[C@@H](CO)C(=O)N[C@@H](CO)C(=O)NCC(=O)N[C@@H](C)C(=O)N1CCC[C@H]1C(=O)N1CCC[C@H]1C(=O)N1CCC[C@H]1C(=O)N[C@@H](CO)C(N)=O)C(C)C
[1]
  Ki: 0.039 nM
Human glucagon receptor
  Ki: 26.2 nM
Human GLP-1 receptor
  Ki: 51.4 nM

B3: Example 44 (peptide)
peptide: Y[Aib]EGT[αMeF]ISDYSIALDKK([AEEA-AEEA-γGlu-C20 diacid])HQ[Aib]DFVE[4Pal]LLEGGPSSGAPPPS-NH2
modifications: N-terminus assumed
SMILES: CC[C@H](C)[C@H](NC(=O)[C@H](CO)NC(=O)[C@H](Cc1ccc(O)cc1)NC(=O)[C@H](CC(=O)O)NC(=O)[C@H](CO)NC(=O)[C@@H](NC(=O)[C@](C)(Cc1ccccc1)NC(=O)[C@@H](NC(=O)CNC(=O)[C@H](CCC(=O)O)NC(=O)C(C)(C)NC(=O)[C@@H](N)Cc1ccc(O)cc1)[C@@H](C)O)[C@@H](C)CC)C(=O)N[C@@H](C)C(=O)N[C@@H](CC(C)C)C(=O)N[C@@H](CC(=O)O)C(=O)N[C@@H](CCCCN)C(=O)N[C@@H](CCCCNC(=O)COCCOCCNC(=O)COCCOCCNC(=O)CC[C@H](NC(=O)CCCCCCCCCCCCCCCCCCC(=O)O)C(=O)O)C(=O)N[C@@H](Cc1c[nH]cn1)C(=O)N[C@@H](CCC(N)=O)C(=O)NC(C)(C)C(=O)N[C@@H](CC(=O)O)C(=O)N[C@@H](Cc1ccccc1)C(=O)N[C@H](C(=O)N[C@@H](CCC(=O)O)C(=O)N[C@@H](Cc1ccncc1)C(=O)N[C@@H](CC(C)C)C(=O)N[C@@H](CC(C)C)C(=O)N[C@@H](CCC(=O)O)C(=O)NCC(=O)NCC(=O)N1CCC[C@H]1C(=O)N[C@@H](CO)C(=O)N[C@@H](CO)C(=O)NCC(=O)N[C@@H](C)C(=O)N1CCC[C@H]1C(=O)N1CCC[C@H]1C(=O)N1CCC[C@H]1C(=O)N[C@@H](CO)C(N)=O)C(C)C
[1]
  Ki: 0.059 nM
Human glucagon receptor
  Ki: 50 nM
Human GLP-1 receptor
  Ki: 209 nM

B4: Example 48 (peptide)
peptide: Y[Aib]EGTFISDYSI[αMeL]LDKK([AEEA-AEEA-γGlu-C20 diacid])HQ[Aib]DFVE[4Pal]LLAGGPSSGAPPPS-NH2
modifications: N-terminus assumed
SMILES: CC[C@H](C)[C@H](NC(=O)[C@H](Cc1ccccc1)NC(=O)[C@@H](NC(=O)CNC(=O)[C@H](CCC(=O)O)NC(=O)C(C)(C)NC(=O)[C@@H](N)Cc1ccc(O)cc1)[C@@H](C)O)C(=O)N[C@@H](CO)C(=O)N[C@@H](CC(=O)O)C(=O)N[C@@H](Cc1ccc(O)cc1)C(=O)N[C@@H](CO)C(=O)N[C@H](C(=O)N[C@@](C)(CC(C)C)C(=O)N[C@@H](CC(C)C)C(=O)N[C@@H](CC(=O)O)C(=O)N[C@@H](CCCCN)C(=O)N[C@@H](CCCCNC(=O)COCCOCCNC(=O)COCCOCCNC(=O)CC[C@H](NC(=O)CCCCCCCCCCCCCCCCCCC(=O)O)C(=O)O)C(=O)N[C@@H](Cc1c[nH]cn1)C(=O)N[C@@H](CCC(N)=O)C(=O)NC(C)(C)C(=O)N[C@@H](CC(=O)O)C(=O)N[C@@H](Cc1ccccc1)C(=O)N[C@H](C(=O)N[C@@H](CCC(=O)O)C(=O)N[C@@H](Cc1ccncc1)C(=O)N[C@@H](CC(C)C)C(=O)N[C@@H](CC(C)C)C(=O)N[C@@H](C)C(=O)NCC(=O)NCC(=O)N1CCC[C@H]1C(=O)N[C@@H](CO)C(=O)N[C@@H](CO)C(=O)NCC(=O)N[C@@H](C)C(=O)N1CCC[C@H]1C(=O)N1CCC[C@H]1C(=O)N1CCC[C@H]1C(=O)N[C@@H](CO)C(N)=O)C(C)C)[C@@H](C)CC
[1]
  Ki: 0.0498 nM
Human glucagon receptor
  Ki: 267 nM
Human GLP-1 receptor
  Ki: 211 nM

B5: Example 33 (peptide)
peptide: Ac-[dY]AEGT[αMePhe(2-F)]ISDYSIALDKK([AEEA-AEEA-γGlu-C20 diacid])HQ[Aib]EFVNYLLEGGPSSGAPPPS-NH2
SMILES: CC[C@H](C)[C@H](NC(=O)[C@H](CO)NC(=O)[C@H](Cc1ccc(O)cc1)NC(=O)[C@H](CC(=O)O)NC(=O)[C@H](CO)NC(=O)[C@@H](NC(=O)[C@](C)(Cc1ccccc1F)NC(=O)[C@@H](NC(=O)CNC(=O)[C@H](CCC(=O)O)NC(=O)[C@H](C)NC(=O)[C@@H](Cc1ccc(O)cc1)NC(C)=O)[C@@H](C)O)[C@@H](C)CC)C(=O)N[C@@H](C)C(=O)N[C@@H](CC(C)C)C(=O)N[C@@H](CC(=O)O)C(=O)N[C@@H](CCCCN)C(=O)N[C@@H](CCCCNC(=O)COCCOCCNC(=O)COCCOCCNC(=O)CC[C@H](NC(=O)CCCCCCCCCCCCCCCCCCC(=O)O)C(=O)O)C(=O)N[C@@H](Cc1c[nH]cn1)C(=O)N[C@@H](CCC(N)=O)C(=O)NC(C)(C)C(=O)N[C@@H](CCC(=O)O)C(=O)N[C@@H](Cc1ccccc1)C(=O)N[C@H](C(=O)N[C@@H](CC(N)=O)C(=O)N[C@@H](Cc1ccc(O)cc1)C(=O)N[C@@H](CC(C)C)C(=O)N[C@@H](CC(C)C)C(=O)N[C@@H](CCC(=O)O)C(=O)NCC(=O)NCC(=O)N1CCC[C@H]1C(=O)N[C@@H](CO)C(=O)N[C@@H](CO)C(=O)NCC(=O)N[C@@H](C)C(=O)N1CCC[C@H]1C(=O)N1CCC[C@H]1C(=O)N1CCC[C@H]1C(=O)N[C@@H](CO)C(N)=O)C(C)C
[1]
  Ki: 0.0369 nM
Human glucagon receptor
  Ki: 63.5 nM
Human GLP-1 receptor
  Ki: 31.2 nM
